Experimental data: paper PMC8548535, “Kinetic and structural roles for the surface in guiding SAS-6 self-assembly to direct centriole architecture” (Nature Communications, 2021)

What was measured:
[1] = molecular target: the molecule itself; assay: circular dichroism, concentration series; monomer to dimer; CD signal at 222 nm at varying protein concentrations, 20 °C, 20 mM potassium phosphate pH 8.0, 150 mM NaF, fitted with a two-state association model
[2] = molecular target: the molecule itself; assay: high-speed atomic force microscopy (PORT-HS-AFM); homodimer with homodimer (and higher oligomers, rings) adsorbed on a mica surface; 20 mM Tris-HCl, 150 mM KCl, pH 7.4, 6-10 °C; ~120 nM in solution (~14 nM pre-incubated on mica for ring opening and closing); effective surface constants, Kd from a fit of a coagulation-fragmentation model

B1: Chlamydomonas reinhardtii SAS-6[NL] (CrSAS-6[NL], amino acids 1-503) (domain or fragment, UniProt A9CQL4 1-503, looked up)
chain: MPLLLDDGDPKAQTGFDLSTATTLFWRPVPVHVKQQDREDVLEELTFRILTGVAKQNHNLRILRIHISSDSDLFFLHTLEVSEEDFQSLKNDQGILVDFASFPGKIISLLEKCILAQPGDSPRFQAVLTIRGGESVFKIVEINDFKQLPHITLAFRPGNDSVVKQFLAFRLSEVKGTCHDLSDDLSRTRDDRDSMVAQLAQCRQQLAQLREQYDKHLLEVQAQAKTQQASAHEERIREKSQLKDQFEKERGEMEGRYRDQIAALNTRLGELDTENRKLREVKYELDTKVSELSHKLGSSEGSNRSLEEETARLRSLNQQLSSSKHELEIQLNEAKAKVLALDEKAQSQGDVIEQQRGRLRDMEAALRQTEQRCADLRDTLASAEGRAKEAQAEVLKGNQAIEKLTNDLRLAKEKTKRKAAIILRQEEELQEREQSLANATRDVGVLGQQAESLRKDVASLHSENDSLRSKLEDSKQQLQSNEQMIRWLNQQVTEAQLHASGAT
notes: SAS-6 of Chlamydomonas reinhardtii, amino acids 1-503: globular N-terminal head domain and the coiled-coil (spokes), without the unstructured C-terminal moiety; Forms a homodimer through its coiled coil (monomer-dimer Kd measured here); source: E. coli BL21(DE3), purified (HisTrap Ni2+-Sepharose, PreScission cleavage, reverse HisTrap, SEC Superdex 200)
Kd [1]: ~20 nM | stoichiometry N [2]: 7 to 10 homodimers
